± gives the uncertainty stated by the source.
Assay: amyloid nucleation score (Sup35N fusion, yeast selection) (log enrichment); library NNK1; higher = more nucleation; inactive = no reads after selection
How it was run: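 Three technical output replicates were used for random libraries. Psi-negative yeast expressing peptides of 20 random codons fused to Sup35N were induced with 100 μM copper sulfate for 24 hours and grown 7 days at 30°C on medium lacking adenine and uracil, and input and output plasmid inserts were Illumina-sequenced, excluding sequences with under 100 input reads. The nucleation score is the DiMSum log enrichment of output over input reads, centred on the mode score of non-aggregating sequences.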

Substance	amyloid nucleation score
SQGAMFVTFMFLEYVMPQPP	3.95 ± 0.089
SQINWILYTSNFTLW	-1.02 ± 1.7
SQSIAVCMVKCNCDCVHIGE	6.126 ± 0.05
SQTNSIISCLERFAGGLVLI	0.349 ± 0.55
SQVGALFDVPQSVNDSFKNM	0.399 ± 0.57
SRCHQRTYEVIAEYDLSKTE	0.223 ± 0.52
SRFDGTNIVCSSGMWFCAWK	8.35 ± 0.045
SRFDMLSRALRCMK	1.35 ± 0.34
SRHSGGAYNIVTMVT	0.517 ± 0.33
SRILRLLHTVHCDGVGERLR	-0.104 ± 1.1
SRIYLLSDRSVFLLLYNYYR	-0.167 ± 0.41
SRLAKLSFKQGNTTVCTKSS	-0.742 ± 0.62
SRMGPGNYWANGKSFAARPP	-0.491 ± 1.4
SRRWNNDLGLFSRERKTTLV	-1.06 ± 1.7
SRSSGFAVTYSNTRTKKSKA	-1.77 ± 1.3
SRVNDQCVLSSWR	0.47 ± 0.5
SRWTQS	0.201 ± 0.88
SRYYASMYLGNYGWHVLLNW	-0.103 ± 0.23
SRYYFHFELFVWR	0.291 ± 0.7
SSAELFREPFQVNRCNCEGW	0.774 ± 0.47
SSAGMTRTKNGPPC	2.89 ± 0.082

Substance	amyloid nucleation score
SSDRAYVFCTRNMEVREGSK	-0.835 ± 0.72
SSEDAVRLLLIVIFFLTFKF	0.778 ± 0.49
SSEIDYVFMAPREV	-0.06 ± 0.63
SSERYLASQPNSSPSPSIPT	-0.421 ± 1.2
SSFRYVCCASRCRETSELLG	0.142 ± 0.5
SSGDVPGFSPYGKWDFWWTC	-0.151 ± 0.45
SSGFTLTSVRMGEMSTANNG	1.1 ± 0.66
SSIGVVKGCIVLWLSMWNQR	4.32 ± 0.066
SSKIRLFRDNTQYNGRWGSY	inactive
SSMLSSNRRSALWKQDVSKG	0.734 ± 1.1
SSMYDSCSLRCLGQVVR	0.711 ± 0.19
SSNYMFVCRSKDLEVLLVGY	0.398 ± 0.51
SSPPDNTKSKATLKALE	-1.5 ± 2.4
SSPWRYSDATFCTAGGEGKS	-0.465 ± 0.62
SSQDYAHSIAGLVYGC	-0.137 ± 0.98
SSRSGPPCACRTRKLACGMM	0.145 ± 0.47
SSSFPVMVYTHDAANCHRML	-0.763 ± 0.41
SSSYDY	-0.545 ± 0.28
SSTKG	0.956 ± 0.72
SSVLATFIKLQHQGRKRKDR	-0.198 ± 0.29
SSVRLDKNN	-0.315 ± 0.52

Substance	amyloid nucleation score
SSVVL	0.531 ± 0.44
SSYAHAVRTQDFKLASGHYV	-0.7 ± 0.88
SSYSRCTFKAFKLGSVRVQV	0.924 ± 0.7
STCSGISFVCHSTIIIKVTF	3.92 ± 0.12
STCSPKELQFMSYVCWVKFC	3.32 ± 0.11
STEVGYSFCHGGMSRTVCMC	1.45 ± 0.68
STMRLPWPGFRVHSL	0.901 ± 0.65
STRMVYR	-0.261 ± 0.95
STSDMLVDSRQIVGEYTSDL	-1.3 ± 1.7
STVWLSVGALAFARASGRRA	3.74 ± 0.12
STWFSFTFLWLMSRGVNQNF	1.56 ± 0.36
SVFGWR	1.32 ± 0.81
SVFWDLTSDWAKIGVKK	-1.03 ± 0.89
SVGEDSSFRRDSKINEGDCD	0.968 ± 0.85
SVIRVLWKGYGTRN	-1.55 ± 1.4
SVLIVLMHGMGYQQKTYCRF	0.316 ± 0.48
SVLLEGFLSYPDLSTNLIHV	-0.416 ± 0.81
SVLLKWMSYTKH	2.66 ± 0.15
SVLLRFYFTRNCGFFGRSTV	0.7 ± 0.97
SVLNSDCNCGIKSWFTDIIM	1.96 ± 0.4
SVLVLSRYFWNKLMRRWLVA	-0.002 ± 1.2

Substance	amyloid nucleation score
SVLWRGIFCFWIAWFV	-1.39 ± 2.4
SVNAYTSRTGRWMVMNSLVS	-0.186 ± 1.9
SVNHCHCL	0.597 ± 0.3
SVPSVDAIMVGTWCYRCW	-0.28 ± 0.68
SVRFSIETISWRGAYNRGTR	1.98 ± 0.22
SVSACPRVPMCIYGYLCWCH	-0.311 ± 0.3
SVTALKLDSSLQKSRDLVGG	-0.233 ± 1.1
SVWCSFFVNAADHNIYRTIT	1.11 ± 0.15
SWAIRALKFVWIA	-0.323 ± 0.93
SWFHGLEGVLSHATMSLGFA	0.1 ± 0.48
SWFYDGCSRPWRGIGDRRVC	-0.812 ± 0.91
SWGQTLTMNNP	-0.273 ± 0.38
SWISCASGFFYFWAIF	-0.739 ± 0.77
SWKPVLSREDFWTNHKGRPM	0.565 ± 0.45
SWLWSCSCLRVAMLTT	inactive
SWNMSFVWFHGCITWRQKGF	0.408 ± 0.4
SYAIPMVAIFQVEGHLGHPG	-0.211 ± 1.2
SYCMLNAVPVEMRLTLPGIR	0.389 ± 0.49
SYDNLRSRREGPEVVGRRAP	0.569 ± 0.74
SYEMWLEHYMRRQQRRP	-0.282 ± 1.7
SYGNVWYIMYHRLKDTGWYM	1.4 ± 0.43
